B1: Translation initiation factor eIF2 assembly protein (Saccharomyces cerevisiae), Q05791 (parent)
chain: MSSQEYTTFIDIPVTRAQVEHCSYSFWSSLYPKYVPKSIVLKSLPKKFIQYLEQDGIKLPQEENSRSVYTEEIIRNEDNDYSDWEDDEDTATEFVQEVEPLIDFPELHQKLKDALNELGAVAPKLNWSAPRDATWILPNNTMKCNEVNELYLLLNASNYIMHDLQRAFKGCVDGDDIKGLKFDLVLRQWCDMNPALEFRVFVKNAHIVGATQRDLNYYDYLDELSDTFKDLIDEIVHDVVLPKFPDKSFVLDVYIPRPFNKIFIVDINPFARKTDSLLFSWNEIAAIAPPKNDVEDYELRLVTRHNTGRFASKEHSENHVPQDLVEASLNPEAIRELTQKWKELLSQQAKEESSDSENET

Variants of: B1
Settings: with if2g_yeast GCD11, P32481
Chain of if2g_yeast GCD11, P32481 (P32481 whole entry): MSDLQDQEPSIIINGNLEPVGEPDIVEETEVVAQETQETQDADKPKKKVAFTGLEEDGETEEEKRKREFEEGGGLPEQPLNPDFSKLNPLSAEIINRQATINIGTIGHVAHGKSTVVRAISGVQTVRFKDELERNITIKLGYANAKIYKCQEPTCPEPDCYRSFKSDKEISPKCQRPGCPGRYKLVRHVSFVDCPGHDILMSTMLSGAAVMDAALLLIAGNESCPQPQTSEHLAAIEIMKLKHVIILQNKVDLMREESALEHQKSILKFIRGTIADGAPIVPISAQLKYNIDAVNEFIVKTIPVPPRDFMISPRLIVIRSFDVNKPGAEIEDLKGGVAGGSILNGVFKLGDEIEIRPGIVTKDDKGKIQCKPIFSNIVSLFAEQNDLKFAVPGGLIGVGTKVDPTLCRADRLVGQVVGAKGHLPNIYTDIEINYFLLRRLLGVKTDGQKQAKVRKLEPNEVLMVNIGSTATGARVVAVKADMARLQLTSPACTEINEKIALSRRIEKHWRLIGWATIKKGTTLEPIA

| effect of a mutation on the interaction | Variant |
| --- | --- |
| decreasing interaction strength | D266A;I267A;N268A |

Source: IntAct's records for PubMed 26211610
